US7906310B2, “Proteases” (Novozymes A/S, priority 2003, dated 2011)

B1: porcine trypsin: protease included for comparative purposes (protein, UniProt P00761 9-231, looked up)
Trypsin: IVGGYTCAANSIPYQVSLNSGSHFCGGSLINSQWVVSAAHCYKSRIQVRLGEHNIDVLEGNEQFINAAKIITHPNFNGNTLDNDIMLIKLSSPATLNSRVATVSLPRSCAAAGTECLISGWGNTKSSGSSYPSLLQCLKAPVLSDSSCKSSYPGQITGNMICVGFLEGGKDSCQGDSGGPVVCNGQLQGIVSWGYGCAQKNKPGVYTKVCNYVNWIQQTIAAN
B2: Metarhizium protease: known protease derived from Metarhizium anisopliae, amino acids 1-188 of SEQ ID NO: 4 (protein, listed as Metarhizium anisopliae)
chain: MELTKFLALLAVILPVAYGAPTQAASLHPQILEAMKRDLGLNAEQATVRVAREIHATDVIEQLRSSVAFAGAWIDADVLYIGITDQALADEVTAAGATPIVMTNSLSKLEKAKEDLDKIFIGRANTLETSSDTSSGIASYFVDVAANKLVIEALADSHGHAEQLAAQVGLTSEFEVRTVETMPTTMAT

Experiments:
[1] = pNA assay dose/response curves with and without various inhibitors; type: biochemical; details: proteases included for comparative purposes
Experimental: (§1) pNA substrate: Suc-AAPF-pNA (Bachem L-1400) or Boc-VLGR-pNA (Bachem L-1205). Temperature: 25° C.
(§2) 20 ul (microliters) protease (diluted in 0.01% Triton X-100) was placed in a well of a micro titer plate. The assay was started by adding 200 ul pNA substrate (50 mg dissolved in 1.0 ml DMSO and further diluted 100× with assay buffer). The increase in OD405 was monitored as a measure of the protease activity.
Dose/response relationships (OD405/min versus (mg enzyme)/l) were determined using the pNA assay for a number of proteases, with and without the various inhibitors. The dose-response curves were linear over a satisfactory broad range of enzyme concentrations. Varying degrees of inhibition were observed: Some proteases included for comparative purposes, viz. porcine trypsin and the SAVINASE™ protease (a subtilisin protease derived from Bacillus clausii, commercially available from Novozymes A/S, Krogshoejvej 36, DK-2880 Bagsvaerd, Denmark) were not inhibited, while other proteases were. […] It was therefore concluded that the pNA assay was indeed suitable for inhibition measurements.
Cu^2+, however, inhibited all of the proteases tested (to a varying extent, as it appears from Table 1 below).

[2] = Stability assay: residual activity after incubation with 1 mM inhibitor, measured by pNA assay; type: physicochemical; design: key to Residual Enzyme Activity: fraction of activity at 0 h incubation (0.80 = 80%); details: 1 mM Cu2+, 25° C., pH 7, 0.1% K-sorbate, relative to 0 hours
Experimental: Feature i) is determined as residual (=rest, or remaining) enzyme activity after having incubated the enzyme for 164 hours, at pH 7 and 25° C., in assay buffer supplemented with 0.1% K-Sorbate (for preservation purposes), and in the presence of 1 mM Cu^2+. The residual activity is measured relative to the activity after 0 hours of incubation. For the protease of the invention, the residual activity is at least 0.80 (=80%).
(§3) Protease activity is measured using the substrate Suc-AAPF-pNA, in assay buffer at pH 7.0 and 25° C. For more details, please refer to the pNA assay described in Example 4, which also describes in detail the determination according to i) and ii).
as §2
The protease was diluted to approx. 1 mg/ml (see below) in assay buffer with 0.1% (w/v) K-sorbate (potassium salt of sorbic acid) and 1 mM inhibitor. The mixture was incubated at 25° C.). At intervals, a sample was withdrawn from the incubation (after thorough mixing) and frozen. After dilution in assay buffer, residual activity was measured using the pNA assay. For the 1 mM inhibitor additions, the incubation was diluted in assay buffer with 5 mM EDTA in order to see a pure stability effect.
Protease concentrations were estimated from the theoretical molar extinction coefficients, E280 (1 M), which can be calculated from the amino acid composition using the formula: E280 (1 M)=5690*NTrp+1280*NTyr+120*NCys, where NTrp, NTyr, and NCys are the number of Trp, Tyr, and Cys amino acid residues in the protease (Gill, S. C., von Hippel, P. H., Analytical Biochemistry 182: 319-326 (1989)) and the molecular weight, Mw, of the protease calculated from the amino acid sequence. From an A280 measurement of a pure protease sample (more than 95% pure according to Example 2), the protease concentration was calculated as: Conc (mg/ml)=(A280*MW)/E280 (1 M)).
The stability of the various proteases in the presence of the various inhibitors in a concentration of 1 mM was tested as described above. The only inhibitor that had some effect on the stability of some of the proteases was Cu^2+. However, the effect of this inhibitor was not the same on all the proteases: See the results in Table 2 below showing that Protease 18 and the Brachysporiella proteases are indeed stable in the presence of 1 mM Cu^2+, while the other proteases are not.

[3] = pNA assay: protease activity with 1 mM Cu2+ relative to control without Cu2+; type: biochemical; details: enzyme 1 mg/l, Suc-AAPF-pNA, pH 7, 25° C.
Experimental: as §3
Feature ii) is determined as the enzyme activity in the presence of 1 mM Cu^2+, relative to the activity of the same enzyme under the same conditions, except for the presence of Cu^2+. For the protease of the invention, this relative activity is at least 0.66 (=66%). For the purposes of feature ii), enzyme (protease) activity is measured as described above.
as §1, §2
First, the effect of various Cu^2+ concentrations was tested with an enzyme dosage of 1 mg/l. At least in the range of 0 to 1 mM Cu^2+ there seemed to be a linear relationship between inhibition and concentration of Cu^2+, the inhibition manifesting itself as a decrease in the enzyme activity with increasing concentrations of Cu^2+ (the enzyme activity being measured as average OD405 increase/time from the linear part of dose/response curves).

Row | Molecule | Inhibition by the various inhibitors (dose/response, pNA assay) [1] | Residual Enzyme Activity ([2]; incubation time 0 hours) | Residual Enzyme Activity ([2]; incubation time 3.1 hours) | Residual Enzyme Activity ([2]; incubation time 18.6 hours) | Residual Enzyme Activity ([2]; incubation time 44.0 hours) | Residual Enzyme Activity ([2]; incubation time 116.0 hours) | Residual Enzyme Activity ([2]; incubation time 164.0 hours) | Residual Enzyme Activity ([2]; incubation time 188.6 hours) | Enzyme Activity, +1 mM Cu^2+ ([3]; 1 mM Cu2+) [mOD405/min] | Relative Activity ([3]; activity with 1 mM Cu2+ relative to control without Cu2+) | Enzyme Activity, Control (no Cu^2+) ([3]; no Cu2+) [mOD405/min]
1 | B1 | not inhibited |  |  |  |  |  |  |  |  |  | 
2 | B2 |  | 1.000 | 0.979 | 0.939 | 0.891 | 0.760 | 0.651 | 0.627 | 72.4 | 0.612 | 118.2
